These results are taken from patent US20250074999A1 (PENTIXAPHARM, published 2025).

Substitutions are numbered along the chain they refer to.

The labels stand for the following.
T1: O-glycosylated LYPD3-STP-ECD (expressed in and purified from NM-F9 cells) (human, UniProt O95274 234-303, O-glycosylated on Ser/Thr by NM-F9 cells: predominantly TF (Galβ1-3GalNAcα1-), lower amounts of Tn)
T1 construct: also called NM-F9-derived LYPD3-STP; STP-rich C-terminal part of the ECD; not shown: fusion partner for purification and detection, e.g. Twin-Strep-tag, MBL or polyhistidine tag; which one and at which end
T1 sequence: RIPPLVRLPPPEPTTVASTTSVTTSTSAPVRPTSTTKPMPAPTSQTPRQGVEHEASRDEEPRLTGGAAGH

B1: 21E9-222 (antibody, V domains shown)
VH: EVQLVESGGGLVQPGGSLRLSCAASGFDFSNYYYMCWVRQAPGKGLEWVSCIAAGSGGYTYYASWAKGRFTISRDNSKNTLYLQMNSLRAEDTAVYYCASSGDYKGFNLWGQGTLVTVS
VL: DIVMTQSPSSLSASVGDRVTITCQASQSISSYLAWYQQKPGKPPKLLIYGASNLASGVPSRFSGSGSGTDFTLTISSLQPEDVATYYCQGYYYSFSDIFAFGGGTKVEI
notes: Humanized 21E9; also called humanized aLYPD3 antibody 21E9-222
B2: 21E9-227 (antibody, V domains shown)
VH: B1 VH with E1Q, Q13K, V38I, S77A, T80S
VL: B1 VL with D1A, V3R, M4I, T5A, V15T, P43A, S77C, P80S, V83F, G103Q
notes: Humanized 21E9; also called humanized aLYPD3 antibody 21E9-227
B3: 21E9-228 (antibody, V domains shown)
VH: B1 VH with E1Q, V5Q, S50L, V95I
VL: B1 VL with D1A, V3R, M4I, T5A, V15T, P43A, S77C, P80S, V83F, G103Q
notes: Humanized 21E9; also called humanized aLYPD3 antibody 21E9-228
B4: 21E9-226 (antibody, V domains shown)
VH: B1 VH
VL: B1 VL with D1E, V107L
notes: Humanized 21E9; also called humanized aLYPD3 antibody 21E9-226
B5: 21E9-220 (antibody, V domains shown)
VH: B1 VH with E1Q, V5Q, S50L, V95I
VL: B1 VL
notes: Humanized 21E9; also called humanized aLYPD3 antibody 21E9-220
B6: 21E9-224 (antibody, V domains shown)
VH: B1 VH
VL: B1 VL with D1E, P43A, V83F
notes: Humanized 21E9; also called humanized aLYPD3 antibody 21E9-224
B7: 21E9-219 (antibody, V domains shown)
VH: B1 VH with E1L, Q13K, V38I, S77A, T80S, Y96W
VL: B1 VL
notes: Humanized 21E9; also called humanized aLYPD3 antibody 21E9-219
B8: 21E9-221 (antibody, V domains shown)
VH: B1 VH with L115M
VL: B1 VL
notes: Humanized 21E9; also called humanized aLYPD3 antibody 21E9-221
B9: 21E9-225 (antibody, V domains shown)
VH: B1 VH
VL: B1 VL with D1A, V3R, M4I, T5A, V15T, P43A, S77C, P80S, V83F, G103Q
notes: Humanized 21E9; also called humanized aLYPD3 antibody 21E9-225

This assay deals with T1, O-glycosylated LYPD3-STP-ECD (expressed …). Briefly: ELISA and flow cytometry (FIGS. 14, 15 and 16). The protocol: Briefly, differently glycosylated and non-glycosylated protein antigens or glycans conjugated to carbohydrate-polyacrylamide conjugates (carbohydrate PAA-conjugates, GlycoNZ) were coated to 96-well plates overnight, unspecific binding was blocked and test antibody samples were added. In some assays an anti-huLYPD3 huIgG1 control monoclonal Ab was used, that was purified from CHO cell supernatant after expression of the antibody sequence derived from patent application WO 2011/070088 A1 (SEQ ID NOs: 51 and 52 of WO 2011/070088) (“aLYPD3 mAb”). This control anti-huLYPD3 antibody binds to the extracellular domain of human LYPD3 in a glycosylation-independent manner. To control protein antigen coating to the ELISA plates anti-huLYPD3 rabbit polyclonal antibody (R&D Systems, cat. no. AF5428) (“aLYPD3 pAb”) or a-MBL antibody (Novusbio) (“aMBL”) for constructs expressed as MBL fusion protein were used. Antibodies recognizing specific glycan structures were used to detect glycosylation of the coated proteins. Anti-TFa (“aTF”) antibody clone HH8 was kindly provided by Prof. Clausen, University of Copenhagen. Antibodies specifically recognizing Tn (“aTn”) were either purchased from SBH Sciences or also provided by Prof. Clausen, University of Copenhagen (clone 5F4). Afterwards, peroxidase conjugated anti-IgG secondary antibody was added, followed by 3,3′,5,5′-tetramethylbenzidine (TMB) substrate reaction. Antibody binding rates were determined by measurement absorbance at 450 nm and 620 or 630 nm as reference wavelength using a multimode microplate reader (PerkinElmer EnSpire 2300 or Tecan Spark).
Binding of aLYPD3 clones to cell lines with different glycosylation status of LYPD3 was tested. LYPD3-transfected NM-F9 (LYPD3-F9), expressing LYPD3 carrying non-sialylated O-glycans, not transfected NM-F9 (corresponding WT cells), expressing endogenous level of LYPD3, and LYPD3-transfected HEK-O-glyc KO (LYPD3-HEK-O-glyc. KO) expressing LYPD3 without O-glycans, were stained with aLYPD3 clones and detected via fluorophore-coupled anti-human-IgG secondary reagent. Expression of LYPD3 and TFa was confirmed using control aLYPD3 pAb and mAb and aTF mAb. To determine background staining, an irrelevant hIgG1 control was included. DAPI was used to discriminate live from dead cells. Cells were analyzed using a Canto II (BD) flow cytometer.
For orientation: In an ELISA, binding on a coated surface is turned into a signal by an enzyme label.
On to B1, for which the binding result is listed as “binds”.
For B2, the binding result is “binds”.
The value for B3 was “binds”.
As to B4, the binding result is on record as “binds”.
For the molecule B5, the binding result was “binds”.
Take B6: the binding result is reported as “binds”.
The same measure for B7: “binds”; for B8: “binds”; for B9: “binds”.
